The target of the assay is T1, GST-Cdc23 (S. pombe, UniProt O42709 1-593).
T1 construct: Cdc23/Mcm10 of S. pombe; also called GST-tagged Cdc23; source: E. coli Codon Plus, from pGEX2T, induced with 1 mM IPTG for 16 h at 18°C; ultrafilter-concentrated extract (pull-down); partially purified (far-western)
T1 sequence (looked up): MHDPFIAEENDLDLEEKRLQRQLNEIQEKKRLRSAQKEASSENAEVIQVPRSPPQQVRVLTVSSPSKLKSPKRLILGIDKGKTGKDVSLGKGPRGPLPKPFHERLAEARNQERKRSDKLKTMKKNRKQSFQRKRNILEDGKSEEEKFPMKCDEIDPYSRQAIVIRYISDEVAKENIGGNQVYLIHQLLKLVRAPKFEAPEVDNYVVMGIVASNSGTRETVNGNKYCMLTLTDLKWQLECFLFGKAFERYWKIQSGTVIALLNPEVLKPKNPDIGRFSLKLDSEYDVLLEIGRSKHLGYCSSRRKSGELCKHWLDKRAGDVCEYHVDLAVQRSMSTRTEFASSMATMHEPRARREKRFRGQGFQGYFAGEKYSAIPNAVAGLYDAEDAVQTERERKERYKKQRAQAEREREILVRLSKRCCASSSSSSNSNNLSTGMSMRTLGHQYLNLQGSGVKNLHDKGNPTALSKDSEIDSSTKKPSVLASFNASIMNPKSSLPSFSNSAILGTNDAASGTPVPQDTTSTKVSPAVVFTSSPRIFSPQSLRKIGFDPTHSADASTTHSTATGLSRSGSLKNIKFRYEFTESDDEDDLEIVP
As to the kind of experiment: far-Western, overlay or dot blot; partially purified GST and GST-Cdc23 resolved by SDS-PAGE, blotted and progressively renatured; incubated with purified extracts from E. coli expressing MBP, MBP-Polα^+ or MBP-Polα^Swi7-1; probed with anti-Polα. The settings on record: both partners purified.

Experimental findings from article PMC6468313, “Role of Cdc23/Mcm10 in generating the ribonucleotide imprint at the mat1 locus in fission yeast” (Nucleic Acids Research, 2019) are described below.

B1: MBP-Polα^Swi7-1 (natural protein, S. pombe, UniProt P28040 1-1405, looked up)
chain: MRKRNAGIKPSQRFAELRALRQAGKTRASTYESKENEELYDNVSEEEYRKIVRQRLDEDDFVVDDNGAGYVDNGYDEWDQSHYSDEDDENEKGSSGRKRKKSKNVLAEPNQQIGAFFKANAIQPASRIANRKNNEKEDEFMAEILGSIDQDIPERLSTKKGNRSHTTSNAKRRSQKAASSISTTNVVSSDPKKYIPETVPSTPQPASSLPIPSSPPAALETEENVDSQPMELDEPELPVGSDAPIIDVEESIAMKPLMSHDQVDDTASLSKATISQQPLSPMTPLSSELDVSAFSEINSKIKNVDVPASSYSSPISKVSPSDVTEEDGSLFFFWMDYTEMYGSLCLFGKVYDKATKQYVSCFLKVDGIMRSLYFLPRPSSSSVSEDSIAAQTKDVYDEVANLLSKRGVKEWKSRVSKYKYAFELEDVPRTADYLEVIYSYSYPALPTDLTGSSFSHVFGTNTALFEQFVLSRRVMGPCWLKIQQPNFDAVKNASWCRVEIGCSSPQNISVSFEKNEITSKTPPMTVMSLAFRTLINKEQNKQEVVMISARIFENVDIEKGLPANDMPSYSFSLIRPLKQIFPNGFEKLARQHKSSIFCERSEVSLLNNFLNKVRTYDPDVYFGHDFEMCYSVLLSRLKERKIHNWSSIGRLRRSEWPRSFNRSSQQFVEKQIIAGRLMCDLSNDFGRSMIKAQSWSLSEIVLKELDIKRQDINQEKALQSWTDTAHGLLDYLVHCEIDTFFIAAVAFKIQMLQLSKNLTNIAGNSWARTLTGTRAERNEYILLHEFKKNGYIVPDKQQSIRRHAEAFGAEDGLQEESLGKKKDKYKGGLVFEPQKGLYETCILVMDFNSLYPSIIQEYNICFTTVDRSPSNSDSDDQIPDTPSASANQGIFPRLIANLVERRRQIKGLLKDNSATPTQRLQWDIQQQALKLTANSMYGCLGYTKSRFYARPLAVLITYKGREALMNTKELADQMGLQVIYGDTDSVMLNTNVTDKNHALRIGNEFKEKVNERYSKLEIDIDNVYQRMLLHAKKKYAALQLDSQGKPNLDVKGLDMKRREFCTLAKEASKFCLDQILSGELTETVIENIHSYLMDFSEKMRNGKFPANKFIIFNRLEKNPEDYPNGKTMPFVQVALKKKARGENVRVGDVIPFIIAGSDADGHPADRAYSPQEIMNTNSTLVIDYNYYLSHQILPPIERVIAPIEGTNRARLAECLGLDARKYYSHETSESSAFQRYESTLTDDQCFINVSPLLLKCPSCNATSFSLRSVKSLKETLYANTVECDCGYEYSDFTIILQFSSQLRDFINLYYEGILVCDDSSCGNRTRQMSVYGKRCCNKSCRGSVHFEYNDEQLYNQIKFLLKAVQTTTGATRNGIIRCNAINKNISRIMNKNAREFVDMGLIFSS
notes: catalytic subunit of DNA polymerase α (Swi7) of S. pombe with the swi7-1 mutation G1116E; also called MBP-tagged swi7-1/polα; Polα^7-1; source: E. coli, from pMALp2, induced with 1 mM IPTG for 8 h at 25°C; purified on amylose resin (far-western)
Regarding B1, the “fold weaker interaction than with Polα^+” value was roughly 3 fold.
